# According to patent US20250154238A1, “METHODS AND COMPOSITIONS FOR TREATING AND PREVENTING FIBROSIS” (YALE UNIVERSITY, priority 2022, published 2025):
# “Also recorded” adds a separate entry of the source.
# T1: recombinant human epiregulin (rhEreg) (Homo sapiens, UniProt O14944)
# T1 construct: recombinant human epiregulin containing the epidermal growth factor (EGF) domain; purchased R&D Biosciences 1195-EP
# T1 sequence (O14944 63-108 limits assumed): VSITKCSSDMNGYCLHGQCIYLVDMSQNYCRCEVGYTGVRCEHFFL
# T2: full-length epiregulin protein (Homo sapiens, UniProt O14944)
# T2 construct: Cultured HFF expressed endogenous full-length epiregulin; endogenous in cells; host or cells: human foreskin fibroblasts (HFF, ATCC #SCRC-1041)
# T2 sequence (O14944 63-169): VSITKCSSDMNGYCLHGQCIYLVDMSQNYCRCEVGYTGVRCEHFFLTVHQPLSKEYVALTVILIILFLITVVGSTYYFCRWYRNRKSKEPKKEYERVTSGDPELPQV
# T3: recombinant mouse epiregulin (rmEreg) (Mus musculus, UniProt Q61521)
# T3 sequence (Q61521 56-101 limits assumed): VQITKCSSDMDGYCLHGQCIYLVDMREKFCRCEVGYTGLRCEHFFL
# Experiments:
# [1] = biological target: T1, recombinant human epiregulin (rhEreg); test: Inhibition of epiregulin-induced proliferation of human foreskin fibroblasts (CyQUANT); type: cell-based; conditions: rhEreg 100 ng/ml
# Procedure: Human foreskin fibroblasts (HFFs) were incubated with recombinant human epiregulin (rhEreg) in Dulbecco's Modified Eagle Medium (DMEM) containing 1% fetal bovine serum (FBS), n=3 per rhEreg concentration (left panel). HFF were incubated in media containing rhEreg 100 ng/ml along with commercially available rat anti-human/mouse epiregulin antibody (middle panel) or hEreg NAb1 (right panel), n=4 (middle panel), n=6 (right panel) per antibody concentration. Data points show mean and standard error, which were fit by interpolating from a sigmoidal standard curve. Proliferation was measured by green fluorescence protein (GFP) fluorescence at day 3 using CyQUANT Direct Cell Proliferation Assay (Invitrogen) on Synergy HTX plate reader (Biotek).
# To gauge their ability to inhibit epiregulin, whether the two unique antibodies produced by the hybridoma clones could inhibit recombinant epiregulin protein in vitro was tested. Characteristic of other EGFR ligands, recombinant human epiregulin (same as used for Alloy mouse immunization) induced proliferation of cultured human foreskin fibroblasts (HFF, ATCC #SCRC-1041) (FIG. 5, left panel). Maximal proliferation occurred at 100 ng/ml, so this concentration was used in subsequent inhibition experiments. […]
# [2] = biological target: T2, full-length epiregulin protein; test: HFF growth with increasing antibody in the absence of exogenous EGFR ligands; type: cell-based; conditions: increasing antibody concentrations, no exogenous EGFR ligands
# Procedure: HFF were incubated with increasing concentrations of hEreg NAb1 in the absence of exogenous epidermal growth factor receptor (EGFR) ligands.
# To gauge their ability to inhibit epiregulin, whether the two unique antibodies produced by the hybridoma clones could inhibit recombinant epiregulin protein in vitro was tested. Characteristic of other EGFR ligands, recombinant human epiregulin (same as used for Alloy mouse immunization) induced proliferation of cultured human foreskin fibroblasts (HFF, ATCC #SCRC-1041) (FIG. 5, left panel). Maximal proliferation occurred at 100 ng/ml, so this concentration was used in subsequent inhibition experiments. The ability of hEreg NAb1 and a commercially available rat anti-human/mouse neutralizing epiregulin antibody (R&D Systems MAB1068) to inhibit epiregulin-induced HFF proliferation was then compared. […] Cultured HFF expressed endogenous full-length epiregulin, but little to no other EGFR ligands. If HFF depend on the expression of epiregulin for growth and survival, inhibition of the endogenously produced protein should reduce their growth. […] Thus, hEreg NAb1 inhibits both the recombinant and full-length human epiregulin proteins.
# [3] = biological target: T3, recombinant mouse epiregulin (rmEreg); test: Inhibition of HFF proliferation induced by mouse epiregulin; type: cell-based; conditions: rmEreg 100 ng/ml
# Procedure: HFF were incubated with recombinant mouse epiregulin (rmEreg) for 3 days (left panel). HFF were incubated in media containing rmEreg 100 ng/ml along with rat anti-human/mouse epiregulin antibody (middle panel) or hEreg NAb1 (right panel), n=4 (middle panel), n=6 (right panel) per antibody concentration. Data points show mean and standard error, which were fit by interpolating from a sigmoidal standard curve.
# In order to validate the humanized antibody in mouse models of fibrosis, it was necessary to establish whether it cross-reacted with the mouse epiregulin homologue. To setup the assay, if recombinant mouse epiregulin could induce HFF proliferation was tested first, which it did similar to the human protein (FIG. 7, left panel). […] In contrast, hEreg NAb1 required >100-fold higher concentration to inhibit HFF proliferation by mouse epiregulin protein (FIG. 7, right panel). […] These findings are likely due to raising the humanized antibody in mice, which would negatively select out B cells that produce a self-reactive antibody.
# other EGFR ligands = test: Rescue of HFF growth by other EGFR ligands in presence of hEreg NAb1; type: cell-based, human; conditions: 5 mg/ml hEreg NAb1; recombinant EGFR ligands 0.1, 1, 10 ng/ml; 3 days
# Procedure: HFF were incubated with 5 mg/ml hEreg NAb1 alone and recombinant EGFR ligands at 0.1 ng/ml. 1 ng/ml, and 10 ng/ml for 3 days prior to quantification.
# Next it was considered whether hEreg NAb1 could inhibit other EGFR ligands (commercially available from R&D Systems). HFF was incubated with 5 mg/ml of hEreg NAb1 alone, which as discussed above, inhibits epiregulin-driven growth of HFF. Whether addition of the other six EGFR ligands could rescue HFF growth through their activation of EGFR was tested. Compared to the hEreg NAb1 alone control, the lowest concentration tested of each EGFR ligand, 0.1 ng/ml, was sufficient to rescue HFF growth (FIG. 8).
# [4] = system: skin biopsies from two patients with sGvHD; test: Sclerotic GvHD patient skin explants, fibrosis protein markers in supernatant by ELISA; type: cell-based, human; conditions: 2.5 mg/ml, 10 days
# Procedure: Paired skin biopsies from right arm and left abdomen of two patients with sGvHD were incubated with 2.5 mg/ml hEreg NAb1 or isotype control IgG1 antibody for 10 days. (FIG. 21A) Photos of patient fibrotic skin. (FIGS. 21B-21C) Media was changed every 48 hours and the level of fibrosis protein markers in the supernatant was quantified by ELISA (Abcam kits ab213831, ab210966, ab219046, ab187394, ab179886).
# It was then investigated whether hEreg NAb1 could reduce fibrosis similar to the epiregulin neutralizing rat antibody. To investigate whether hEreg NAb1 reduces fibrosis protein markers, hEreg NAb1 was tested on skin biopsies from two patients with the fibrotic form of graft-vs-host disease (sGvHD). Patient I was a person 3 years post stem cell transplant from matched unrelated donor for treatment of myelodysplastic syndrome not on any immunosuppressive therapies. Patient 2 was a person 3 years post stem cell transplant from matched unrelated donor for treatment of acute myelogenous leukemia not on any immunosuppressive therapies. Paired 4 mm skin biopsies from the most affected skin of the right arm of patient 1 and left abdomen of patient 2 were obtained (FIG. 21A). Skin explants were incubated with 2.5 mg/ml hEreg NAb1 or isotype control IgG1 antibody for 10 days.
# [5] = skin explants from either patient
molecule,measurement,setting,value
"hEreg NAb1: humanized epiregulin neutralizing antibody from hybridoma wells M3-5; VH SEQ ID NO: 1, VL SEQ ID NO: 6 (antibody, V domains shown) VH: HLQLQESGPGLVKSSETLSLTCSVSGGSISSSGYYWGWIRQPPGKGLEWIGSFYYSGNTYYNPSLKSRVTISADTSKSQYSLKLSSVTAADTAVYYCARHPFNWNDHYHYMDVWGNGTTVTVSS VL: DIQMTQSPSSLSASVGDSVTITCRASQSISNYLNWYQKKPGKAPKVLIYAASSLQSGVPSRFSGSGSGTDFTLTISSLQPEDFATYYCQQSYITSITFGQGTRLEIK",inhibition of human epiregulin-induced HFF proliferation,[1]; 3 days,inhibited HFF proliferation in a concentration-dependent manner; also recorded: inhibits
same,"IC50, inhibition of epiregulin-induced HFF proliferation",[1]; day 3,0.1 to 0.3 µg/mL
same,HFF growth / inhibition of endogenous full-length epiregulin,[2],decreased growth was observed; also recorded: inhibits full-length epiregulin protein
same,cross-reactivity for mouse epiregulin protein,[3]; HFF proliferation,little cross-reactivity; also recorded: low cross-reactivity
same,fold higher concentration required to inhibit HFF proliferation by mouse epiregulin protein,[3]; HFF,> 100 fold
same,cross-reactivity with / neutralization of other EGFR ligands,other EGFR ligands,does not cross-react; also recorded: does not neutralize
same,fibrosis markers in sclerotic GvHD skin explants,[4]; vs isotype control IgG1,reduces fibrosis markers
same,MCP-1 in supernatant vs IgG1 isotype control,"[4]; patient 1, right arm",significantly reduced expression
same,TIMP1 in supernatant vs IgG1 isotype control,"[4]; patient 1, right arm",significantly reduced expression
same,TNC in supernatant vs IgG1 isotype control,"[4]; patient 1, right arm",significantly reduced expression
same,TNC in supernatant vs IgG1 isotype control,"[4]; patient 2, left abdomen",significant reduction
same,fibronectin (FN) expression,[4]; [5],did not reduce expression
same,pro-collagen I alpha 1/pro-collagen I N-terminal propeptide (PINP) expression,[4]; [5],did not reduce expression
